Test results: the supplement of paper PMC7877785
± gives the uncertainty stated by the source.

Assay: self-splicing fitness, log relative to wild type (ln ratio); higher = more splicing; Tetrahymena group I intron in knt gene, E. coli kanamycin selection, DiMSum; sequences stand for … in CUCUCU…GGAGGGAAAAGUUAUCAGGCAUGCACCUGGUAGCUAGUCUUUAAACCAAUAGAUUGCAUCGGUUUAAAAGGCAAGACCGUCAAAUUGCGGGAAAGGGGUCAACAGCCGUUCAGUACCAAGUCUCAGGGGAAACUUUGAGAUGGCCUUGCAAAGGGUAUGGUAAUAAGCUGACGGACAUGGUCCUAACCACGCAGCCAAGUCCUAAGUCAACAGAUCUUCUGUUGAUAUGGAUGCAGUUCACAGACUAAAUGUCGGUCGGGGAAGAUGUAUUCUUCUCAUAAGAUAUAGUCGGACCUCUCCUUAAUGGGAGCUAGCGGAUGAAGUGAUGCAACACUGGAGCCGCUGGGAACUAAUUUGUAUGCGAAAGUAUAUUGAUUAGUUUUGGAGUACUCGUGGUCG
In short: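 Library with all eight P1ex-region intron nucleotides randomised, intron inside the knt kanamycin-resistance gene on pET-22b(+), in E. coli BL21(DE3). Cells grew overnight at 37°C or 30°C on LB agar with or without 25 μg/mL kanamycin (plus 100 μg/mL carbenicillin, 50 μM IPTG, 0.2% rhamnose), in six replicate transformations. Pooled colonies were amplicon-sequenced on Illumina HiSeq 2500. DiMSum fitness is the error-weighted combination of wild-type-normalised replicate fold changes, kanamycin versus none.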

Sequence | self-splicing fitness (ln) (30 °C) | self-splicing fitness (ln) (37 °C)
CAGCAGCAAUAUUACGAGUA | -3.05 ± 0.19 | -1.77 ± 0.18
CAGCAGCAAUAUUACGAGUU | -3.95 ± 0.2 | -2.15 ± 0.13
CAGCAGCAAUAUUACGCGAG | -2.74 ± 0.15 | -1.7 ± 0.15
CAGCAGCAAUAUUACGCGCG | -1.63 ± 0.099 | -1.3 ± 0.14
CAGCAGCAAUAUUACGCGUA | -1.87 ± 0.083 | -1.05 ± 0.075
CAGCAGCAAUAUUACGCUGU | -2.84 ± 0.22 | -2.36 ± 0.24
CAGCAGCAAUAUUACGGAUC | -3.6 ± 0.36 | -1.37 ± 0.26
CAGCAGCAAUAUUACGGGAC | -3.71 ± 0.22 | -2.46 ± 0.27
CAGCAGCAAUAUUACGGUGG | -1.17 ± 0.067 | -0.196 ± 0.088
CAGCAGCAAUAUUACGUCAG | -0.347 ± 0.05 | -0.265 ± 0.06
CAGCAGCAAUAUUACGUGUC | -3.31 ± 0.15 | -2.79 ± 0.18
CAGCAGCAAUAUUACGUGUG | -2.51 ± 0.077 | -1.32 ± 0.088
CAGCAGCAAUAUUACGUUCU | -2.35 ± 0.072 | -1.4 ± 0.081
CAGCAGCAAUAUUACGUUGC | -2.61 ± 0.27 | -2.11 ± 0.2
CAGGAGCAAUAUUACGAUAA | -3.33 ± 0.2 | -1.88 ± 0.16
CAGGAGCAAUAUUACGAUAC | -2.81 ± 0.4 | –
CAGGAGCAAUAUUACGAUCA | -1.84 ± 0.16 | -2.74 ± 0.28
CAGGAGCAAUAUUACGCAGG | -2.36 ± 0.078 | -1.37 ± 0.076
CAGGAGCAAUAUUACGCCGC | -2.74 ± 0.25 | -1.58 ± 0.46
CAGGAGCAAUAUUACGCGUA | -2.85 ± 0.16 | -2.03 ± 0.18
CAGGAGCAAUAUUACGCGUG | -3.2 ± 0.16 | -2.42 ± 0.17
CAGGAGCAAUAUUACGUAGA | -3.42 ± 0.28 | -1.56 ± 0.21
CAGGAGCAAUAUUACGUAUU | -2.97 ± 0.21 | -2.2 ± 0.18
CAGGAGCAAUAUUACGUCGC | -3.25 ± 0.34 | -1.6 ± 0.29
CAGGAGCAAUAUUACGUGUA | -4.13 ± 0.27 | -2.83 ± 0.25
CAGGAGCAAUAUUACGUUGC | – | -2.26 ± 0.28

Sequence | self-splicing fitness (ln) (30 °C) | self-splicing fitness (ln) (37 °C)
CAGUAGCAAUAUUACGAAAG | -0.623 ± 0.099 | -0.726 ± 0.14
CAGUAGCAAUAUUACGAACG | -0.0483 ± 0.12 | -0.375 ± 0.14
CAGUAGCAAUAUUACGAAUA | -4.27 ± 0.43 | -1.71 ± 0.2
CAGUAGCAAUAUUACGAGAA | – | -3.36 ± 0.46
CAGUAGCAAUAUUACGAGUU | -3.52 ± 0.18 | -2.06 ± 0.15
CAGUAGCAAUAUUACGAUUA | -2.16 ± 0.13 | -1.73 ± 0.11
CAGUAGCAAUAUUACGCAAC | – | -1.53 ± 0.36
CAGUAGCAAUAUUACGCAAG | -1.07 ± 0.12 | -0.553 ± 0.17
CAGUAGCAAUAUUACGCACA | -1.88 ± 0.14 | -0.579 ± 0.18
CAGUAGCAAUAUUACGCAGA | -2.68 ± 0.37 | -2.43 ± 0.3
CAGUAGCAAUAUUACGCCAG | -0.7 ± 0.1 | -0.109 ± 0.15
CAGUAGCAAUAUUACGCCGU | -2.93 ± 0.36 | -0.37 ± 0.19
CAGUAGCAAUAUUACGCGCA | -1.08 ± 0.074 | -0.617 ± 0.085
CAGUAGCAAUAUUACGCGGA | -2.93 ± 0.24 | -1.64 ± 0.15
CAGUAGCAAUAUUACGCGGG | -3.1 ± 0.16 | -1.91 ± 0.17
CAGUAGCAAUAUUACGCUAA | -2.26 ± 0.5 | -2.38 ± 0.32
CAGUAGCAAUAUUACGCUGA | -2.07 ± 0.24 | -1.95 ± 0.3
CAGUAGCAAUAUUACGCUGC | – | -1.92 ± 0.43
CAGUAGCAAUAUUACGGAAA | -3.56 ± 0.47 | -3.19 ± 0.4
CAGUAGCAAUAUUACGGAAC | – | -2.72 ± 0.43
CAGUAGCAAUAUUACGGACA | -2.94 ± 0.17 | -2.23 ± 0.17
CAGUAGCAAUAUUACGGACG | -0.216 ± 0.11 | 0.702 ± 0.16
CAGUAGCAAUAUUACGGGAU | -4.35 ± 0.31 | -3.18 ± 0.16
CAGUAGCAAUAUUACGGUGG | -0.646 ± 0.06 | -0.131 ± 0.09
CAGUAGCAAUAUUACGUAAU | -4 ± 0.28 | -2.63 ± 0.44
CAGUAGCAAUAUUACGUACG | 0.212 ± 0.13 | 0.0818 ± 0.15

Sequence | self-splicing fitness (ln) (30 °C) | self-splicing fitness (ln) (37 °C)
CAGUAGCAAUAUUACGUGGG | -3.85 ± 0.29 | -1.92 ± 0.21
CAGUAGCAAUAUUACGUUUC | -3.64 ± 0.3 | -2.69 ± 0.3
CAUAAGCAAUAUUACGAACA | -3.64 ± 0.4 | -2.06 ± 0.38
CAUAAGCAAUAUUACGAAGA | -2.84 ± 0.37 | -3.15 ± 0.33
CAUAAGCAAUAUUACGCAAU | -3.2 ± 0.25 | -2.59 ± 0.36
CAUAAGCAAUAUUACGCGCC | -3.87 ± 0.4 | -1.47 ± 0.34
CAUAAGCAAUAUUACGCGGU | -3.72 ± 0.24 | -2.34 ± 0.17
CAUAAGCAAUAUUACGCUCU | -2.58 ± 0.19 | -1.3 ± 0.12
CAUAAGCAAUAUUACGCUGC | -3.86 ± 0.21 | -3.23 ± 0.3
CAUAAGCAAUAUUACGCUUC | -2.57 ± 0.27 | -2.19 ± 0.3
CAUAAGCAAUAUUACGGACU | -3.64 ± 0.18 | -2.97 ± 0.23
CAUAAGCAAUAUUACGGAGC | -3.94 ± 0.29 | -3.35 ± 0.22
CAUAAGCAAUAUUACGGAGU | -3.14 ± 0.15 | -2.35 ± 0.2
CAUAAGCAAUAUUACGGAUG | -3.14 ± 0.14 | -2.17 ± 0.15
CAUAAGCAAUAUUACGGCGC | -2.68 ± 0.42 | -3.17 ± 0.35
CAUAAGCAAUAUUACGGCUG | -0.37 ± 0.082 | 0.0915 ± 0.12
CAUAAGCAAUAUUACGGGGA | -2.02 ± 0.17 | -2.83 ± 0.23
CAUAAGCAAUAUUACGGGGG | -2.49 ± 0.094 | -2.42 ± 0.14
CAUAAGCAAUAUUACGGUCG | 0.0543 ± 0.064 | -0.0112 ± 0.079
CAUAAGCAAUAUUACGUAAG | 0.111 ± 0.062 | 0.3 ± 0.079
CAUAAGCAAUAUUACGUACC | -1.97 ± 0.3 | –
CAUAAGCAAUAUUACGUACG | -0.507 ± 0.053 | 0.239 ± 0.074
CAUAAGCAAUAUUACGUCAG | -1.26 ± 0.13 | 0.389 ± 0.15
CAUAAGCAAUAUUACGUGAC | -2.48 ± 0.15 | -2.03 ± 0.22
CAUAAGCAAUAUUACGUGGC | – | -1.86 ± 0.25
CAUAAGCAAUAUUACGUUAA | -2.6 ± 0.23 | -2.92 ± 0.4
